Results taken from patent publication US20220357317A1 (NATIONAL UNIVERSITY COMORATION HOKKAIDO UNIVERSITY, published 2022).

T1: reduced form of HD5 (HD5 without any intramolecular disulfide bond) (human, no intramolecular disulfide bonds (reduced form))
T1 construct: Chemically synthesized mature HD5 before the oxidation treatment; also called r-HD5
T1 peptide: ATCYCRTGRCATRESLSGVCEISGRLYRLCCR

T2: oxidized form of human α-defensin HD5 (HD5 with three intramolecular disulfide bonds) (human, six cysteine residues form three intramolecular disulfide bonds (oxidized form))
T2 construct: Chemically synthesized mature HD5 (32 amino acids), oxidized and purified by reverse-phase chromatography; confirmed by MALDI-TOF MS; also called ox-HD5; DEFA5
T2 peptide: T1 peptide

B1: monoclonal antibody 12-1 (antibody, V domains shown)
VH: QVQLQQSGAELARPGASVKLSCKASGYTFTSYGISWVKQRTGQGLEWIGEIYPRSGNTYYNEKFKGKATLTADKSSSTAYMQLSSLTSEDSAVYFCARDYDGFPYFDYWGQGTTLTVSS
VL: DIVLTQSPASLAVSLGQRATISCRASESVDSYGYSFMHWYQQKPGQPPKLLIYRASNLESGIPARFSGSGSRTDFTLTINPVEADDVATYYCQQSNEDPRTFGGGTKLEIK
notes: constant regions are not; Immobilized on the plate as capture antibody in the sandwich ELISA; also called capture antibody 12-1; anti-ox-HD5 monoclonal antibody according to a)
B2: monoclonal antibody 39E-7 (antibody, V domains shown)
VH: EVQLQQSGPELVKPGASVKISCKASGYSFTGSYMNWVKQSPEKSLEWIGEINPSTGGTTHNQKFKAKATLTVDTSSSTFYMQLKSLTSEDSAVYYCARDYAGSYDWYFDVWGAGTTVTVSS
VL: DIKMTQSPSSMYASLGERVTITCKASQDINSYLSWFQQKPGKSPKTLIYRANRLVDGVPSRFSGSGSGQDYSLTISSLEYEDMGIYYCLQYDEFPYTFGGGTKLEII
notes: constant regions are not; also called detection antibody 39E-7; anti-ox-HD5 monoclonal antibody according to b)

Assays:
[1] = biological target: T1, reduced form of HD5 (HD5 without any …); experiment: sandwich ELISA, capture 12-1 (1 mg/ml) with detection 39E-7 (0.5 mg/ml), antigen 0 to 60 ng/ml
[2] = biological target: T2, oxidized form of human α-defensin HD5 …; experiment: indirect ELISA screening, plate coated with 1 µg/ml ox-HD5, hybridoma supernatant
Method: Autoimmune disease mice (C3H/HeJJmsSlc-lpr/lpr available from Japan SLC, Inc.) injected with an adjuvant according to a conventional method were immunized with ox-HD5 by three times of intra-abdominal injection (0.2 mg each time). Later, cells were collected from the spleen of the immunized mice according to a conventional method, and then fused with a mouse myeloma cell line P3U1 with use of 50% polyethylene glycol 1500 (Sigma-Aldrich Co. LLC) to prepare hybridomas. Each hybridoma clone was screened by indirect ELISA, and subcloned four times by a limiting dilution method.
The indirect ELISA was carried out by the following procedures. Wells of a flat-bottomed microtiter plate (Nunc) were coated with 1 μg/ml of ox-HD5 dissolved in Ca²⁺/Mg²⁺-free phosphate buffered saline (PBS), and then incubated overnight at 4° C. After three times of washing with PBS containing 0.1% Tween 20 (PBS-T), culture supernatant from each hybridoma clone was added to the wells, and incubated at 37° C. for 1 hour. […] 100 μL of 3,3′,5,5′-tetramethylbenzidine (TMB) substrate buffer (KPL) was added to each well, then the plate was incubated at 25° C. for 30 minutes, and then absorbance at 405 nm was measured with use of a microplate reader Multiscan FC (Thermo Scientific).

[3] = biological target: T2, oxidized form of human α-defensin HD5 …; experiment: sandwich ELISA, capture 12-1 (1 mg/ml) with detection 39E-7 (0.5 mg/ml)

Row | Binder | binding result [1] | binding result [2] | binding result [3]
1 | B1 | binds | binds | –
2 | B2 | binds | – | binds
